Reference: patent US20210355215A1

Target: BsAb CD3-BCMA (human)
Assay: 1 mL CH1-XL column, purified BsAb 5 mg/ml load, residence time 4 min, 10% breakthrough

Chain of BsAb CD3-BCMA (human) (heavy, as listed by the source, chain 1 of 3): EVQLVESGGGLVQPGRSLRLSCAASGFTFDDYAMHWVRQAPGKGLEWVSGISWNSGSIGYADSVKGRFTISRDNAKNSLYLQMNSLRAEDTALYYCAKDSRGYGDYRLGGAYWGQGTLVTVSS
Chain of BsAb CD3-BCMA (human) (light, as listed by the source, chain 2 of 3): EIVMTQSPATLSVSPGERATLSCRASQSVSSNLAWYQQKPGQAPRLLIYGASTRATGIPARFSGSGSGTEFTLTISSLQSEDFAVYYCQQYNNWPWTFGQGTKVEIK
Chain of BsAb CD3-BCMA (human) (heavy, as listed by the source, chain 3 of 3): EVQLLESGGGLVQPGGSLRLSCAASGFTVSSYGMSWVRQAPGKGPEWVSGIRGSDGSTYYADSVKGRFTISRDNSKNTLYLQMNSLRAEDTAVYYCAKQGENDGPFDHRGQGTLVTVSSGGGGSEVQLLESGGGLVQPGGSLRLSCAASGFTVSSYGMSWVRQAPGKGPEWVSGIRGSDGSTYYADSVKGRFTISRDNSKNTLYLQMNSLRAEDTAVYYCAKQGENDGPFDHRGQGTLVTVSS

Question: Which dynamic binding capacity does the source give for “CaptureSelect CH1-XL affinity resin ligand (13 kDa llama heavy chain antibody fragment, Ig heavy chain CH1-specific nanobody) (VHH)” here?
Answer: 9.3 mg/mL
